Starred links: 1 amine or outer side, 2 acyl side, 3 side chain; linkers in the order of their positions; H or OH if unused. Non-standard residues stand in square brackets, D forms with d. Groups on a side chain read outwards from the residue. No end group written: not given here. *: point of attachment. C16 diacid = O=C(O)CCCCCCCCCCCCCCC(=O)*; γGlu = O=C(O)[C@H](CCC(=O)[*:2])N[*:1]; Aib = CC(C)(N)C(=O)O
B1: peptide of SEQ ID NO: 195 (peptide)
peptide: IVLSLD[dV]PIGLK([γGlu-C16 diacid])QILLKQERQKK[Aib]RQQAETNKRILERV-NH2
modifications: N-terminus assumed
SMILES: CC[C@H](C)[C@H](N)C(=O)N[C@H](C(=O)N[C@@H](CC(C)C)C(=O)N[C@@H](CO)C(=O)N[C@@H](CC(C)C)C(=O)N[C@@H](CC(=O)O)C(=O)N[C@@H](C(=O)N1CCC[C@H]1C(=O)N[C@H](C(=O)NCC(=O)N[C@@H](CC(C)C)C(=O)N[C@@H](CCCCNC(=O)CC[C@H](NC(=O)CCCCCCCCCCCCCCC(=O)O)C(=O)O)C(=O)N[C@@H](CCC(N)=O)C(=O)N[C@H](C(=O)N[C@@H](CC(C)C)C(=O)N[C@@H](CC(C)C)C(=O)N[C@@H](CCCCN)C(=O)N[C@@H](CCC(N)=O)C(=O)N[C@@H](CCC(=O)O)C(=O)N[C@@H](CCCNC(=N)N)C(=O)N[C@@H](CCC(N)=O)C(=O)N[C@@H](CCCCN)C(=O)N[C@@H](CCCCN)C(=O)NC(C)(C)C(=O)N[C@@H](CCCNC(=N)N)C(=O)N[C@@H](CCC(N)=O)C(=O)N[C@@H](CCC(N)=O)C(=O)N[C@@H](C)C(=O)N[C@@H](CCC(=O)O)C(=O)N[C@H](C(=O)N[C@@H](CC(N)=O)C(=O)N[C@@H](CCCCN)C(=O)N[C@@H](CCCNC(=N)N)C(=O)N[C@H](C(=O)N[C@@H](CC(C)C)C(=O)N[C@@H](CCC(=O)O)C(=O)N[C@@H](CCCNC(=N)N)C(=O)N[C@H](C(N)=O)C(C)C)[C@@H](C)CC)[C@@H](C)O)[C@@H](C)CC)[C@@H](C)CC)C(C)C)C(C)C
B2: peptide of SEQ ID NO: 193 (peptide)
peptide: IVLSLD[dV]PIGLK([γGlu-C16 diacid])QILLKQERQKK[Aib]REQAETNKRILERV-NH2
modifications: N-terminus assumed
SMILES: CC[C@H](C)[C@H](N)C(=O)N[C@H](C(=O)N[C@@H](CC(C)C)C(=O)N[C@@H](CO)C(=O)N[C@@H](CC(C)C)C(=O)N[C@@H](CC(=O)O)C(=O)N[C@@H](C(=O)N1CCC[C@H]1C(=O)N[C@H](C(=O)NCC(=O)N[C@@H](CC(C)C)C(=O)N[C@@H](CCCCNC(=O)CC[C@H](NC(=O)CCCCCCCCCCCCCCC(=O)O)C(=O)O)C(=O)N[C@@H](CCC(N)=O)C(=O)N[C@H](C(=O)N[C@@H](CC(C)C)C(=O)N[C@@H](CC(C)C)C(=O)N[C@@H](CCCCN)C(=O)N[C@@H](CCC(N)=O)C(=O)N[C@@H](CCC(=O)O)C(=O)N[C@@H](CCCNC(=N)N)C(=O)N[C@@H](CCC(N)=O)C(=O)N[C@@H](CCCCN)C(=O)N[C@@H](CCCCN)C(=O)NC(C)(C)C(=O)N[C@@H](CCCNC(=N)N)C(=O)N[C@@H](CCC(=O)O)C(=O)N[C@@H](CCC(N)=O)C(=O)N[C@@H](C)C(=O)N[C@@H](CCC(=O)O)C(=O)N[C@H](C(=O)N[C@@H](CC(N)=O)C(=O)N[C@@H](CCCCN)C(=O)N[C@@H](CCCNC(=N)N)C(=O)N[C@H](C(=O)N[C@@H](CC(C)C)C(=O)N[C@@H](CCC(=O)O)C(=O)N[C@@H](CCCNC(=N)N)C(=O)N[C@H](C(N)=O)C(C)C)[C@@H](C)CC)[C@@H](C)O)[C@@H](C)CC)[C@@H](C)CC)C(C)C)C(C)C

Key:
[1] = biological target: human corticotropin-releasing factor 2α (CRF2α receptor) (human), Q13324; assay: cell-based or functional assay
Sequence of human corticotropin-releasing factor 2α (CRF2α receptor) (human), Q13324 (Q13324 20-411): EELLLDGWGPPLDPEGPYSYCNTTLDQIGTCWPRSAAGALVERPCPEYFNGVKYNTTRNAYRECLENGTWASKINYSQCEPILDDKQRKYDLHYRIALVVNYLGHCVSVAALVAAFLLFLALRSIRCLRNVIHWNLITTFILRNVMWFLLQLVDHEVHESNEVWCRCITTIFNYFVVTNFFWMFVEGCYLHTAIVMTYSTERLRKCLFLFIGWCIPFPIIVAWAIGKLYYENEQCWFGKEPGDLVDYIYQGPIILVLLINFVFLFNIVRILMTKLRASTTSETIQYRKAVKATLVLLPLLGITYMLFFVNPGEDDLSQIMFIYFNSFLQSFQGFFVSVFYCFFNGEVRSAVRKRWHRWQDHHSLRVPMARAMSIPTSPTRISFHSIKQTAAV

[2] = biological target: human corticotropin-releasing factor 2α receptor (CRF2α receptor) (human), Q13324; assay: cell-based or functional assay
Sequence of human corticotropin-releasing factor 2α receptor (CRF2α receptor) (human), Q13324 (Q13324 20-411): as above

Binder | EC50 [nM], 0% HSA (cAMP, HTRF) [1] [nM] | CRF2 EC50 (cAMP, HTRF) [2] [nM]
B1 | 0.34 | 0.34
B2 | 0.82 | 0.82

Source: patent US12679878B2, “CRF2 receptor agonists and their use in therapy” (SANOFI, priority 2020, dated 2026)
